The values below come from patent US20230235054A1 (BIOATLA, published 2023).

The target in experiment [1] is T1, cynoNectin4-mFc (cyno, UniProt A0A2K5WES1 32-349).
T1 construct: Immobilized on the SPR chip; also called cyanoNectin4; not shown: mFc (mouse Fc)
T1 sequence: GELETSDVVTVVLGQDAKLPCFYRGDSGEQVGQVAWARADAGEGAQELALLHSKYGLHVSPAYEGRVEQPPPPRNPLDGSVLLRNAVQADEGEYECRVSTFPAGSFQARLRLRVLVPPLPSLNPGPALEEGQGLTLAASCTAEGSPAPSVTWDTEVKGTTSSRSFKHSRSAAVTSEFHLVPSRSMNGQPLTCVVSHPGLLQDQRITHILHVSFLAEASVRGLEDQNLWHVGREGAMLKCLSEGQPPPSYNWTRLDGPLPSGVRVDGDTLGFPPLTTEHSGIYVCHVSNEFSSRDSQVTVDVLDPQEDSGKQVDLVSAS
As to the kind of experiment: SPR, cynoNectin4-mFc immobilized, pH 6.0. The protocol: (§1) Binding kinetics of anti-Nectin4 antibodies were measured by surface plasmon resonance using a SPR2/4 instrument (Sierra Sensors, Hamburg, Germany) and flat amine sensor chips. The SPR sensor contained four flow cells (FC1-FC4), each of which was addressed individually or in groups. huNectin4-His was immobilized in FC2, and cynoNectin4-mFc in FC4. No protein was immobilized in FC1 and FC3 which were used as control surfaces for FC2 and FC4, respectively.
(§2) All injections were done at a flow rate of 25 μL/min at 25° C. The sensor surface was activated with 1-ethyl-3-(3-dimethylaminopropyl)-carbodiimide (EDC) and N-hydroxysuccinimide (NHS) (200 mM/50 mM) for 480 seconds. HuNectin4-His (2 μg/mL in 10 mM NaAc, pH4.5) was injected for 480s and the surface was inactivated by injecting 1M ethanolamine-HCl for 480s. CynoNectin4 was immobilized using the same conditions as described for huNectin4-His, except that the cynoNectin4 was diluted into 10 mM NaAc buffer having pH 5.0. The control surface was activated and deactivated using the same conditions, but without injecting protein. PBST buffer (PBS pH 7.4 with 0.05% TWEEN20™) was used as running buffer for the surface preparation. The running solution was switched to PBST with 30 mM sodium bicarbonate with the pH adjusted as indicated in the figures before the analyte injections. The instrument was equilibrated with the running solution for one hour before the first analyte injection.
(§3) The off-rate was measured for 360s. The chip surface was regenerated after each cycle of interaction analysis by injecting 6 μL of 10 mM glycine (pH 2.0). Flow cells 1 and 3 without immobilized protein were used as control surfaces for reference subtraction.

In experiment [2] the target is T1, cynoNectin4-mFc. Put plainly: SPR, cynoNectin4-mFc immobilized, pH 7.4. The protocol:
as §1, §2, §3
Background: SPR reads the build-up and loss of mass on a sensor chip optically.

The target in another experiment is T2, cyno Nectin-4 on cells (cyno, UniProt A0A2K5WES1 32-510).
T2 construct: whole, on cells; also called HEK293 cells expressing cyno Nectin-4; cyno Nectin-4 cells
T2 sequence: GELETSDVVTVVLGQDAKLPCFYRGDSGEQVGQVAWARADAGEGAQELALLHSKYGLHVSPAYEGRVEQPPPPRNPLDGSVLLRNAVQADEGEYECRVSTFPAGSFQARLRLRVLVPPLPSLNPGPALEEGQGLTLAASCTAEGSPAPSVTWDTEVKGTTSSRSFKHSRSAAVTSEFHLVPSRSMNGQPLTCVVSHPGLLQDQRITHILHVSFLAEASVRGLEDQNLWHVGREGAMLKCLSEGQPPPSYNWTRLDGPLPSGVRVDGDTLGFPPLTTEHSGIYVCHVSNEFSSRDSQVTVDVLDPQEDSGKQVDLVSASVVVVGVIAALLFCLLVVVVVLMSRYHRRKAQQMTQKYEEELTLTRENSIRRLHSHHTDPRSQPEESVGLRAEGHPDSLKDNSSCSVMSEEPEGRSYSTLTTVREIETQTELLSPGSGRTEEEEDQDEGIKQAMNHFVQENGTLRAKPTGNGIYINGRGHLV
Put plainly: FACS, HEK293 cells expressing cyno Nectin-4. A general note: A flow cytometer gives signals particle by particle.

For experiment [3], the target named is T3, human Nectin-4 on cells (human, UniProt Q96NY8 32-510).
T3 construct: whole, on cells; also called HEK293 cells expressing human Nectin-4; T47D cells that express human Nectin-4
T3 sequence (looked up): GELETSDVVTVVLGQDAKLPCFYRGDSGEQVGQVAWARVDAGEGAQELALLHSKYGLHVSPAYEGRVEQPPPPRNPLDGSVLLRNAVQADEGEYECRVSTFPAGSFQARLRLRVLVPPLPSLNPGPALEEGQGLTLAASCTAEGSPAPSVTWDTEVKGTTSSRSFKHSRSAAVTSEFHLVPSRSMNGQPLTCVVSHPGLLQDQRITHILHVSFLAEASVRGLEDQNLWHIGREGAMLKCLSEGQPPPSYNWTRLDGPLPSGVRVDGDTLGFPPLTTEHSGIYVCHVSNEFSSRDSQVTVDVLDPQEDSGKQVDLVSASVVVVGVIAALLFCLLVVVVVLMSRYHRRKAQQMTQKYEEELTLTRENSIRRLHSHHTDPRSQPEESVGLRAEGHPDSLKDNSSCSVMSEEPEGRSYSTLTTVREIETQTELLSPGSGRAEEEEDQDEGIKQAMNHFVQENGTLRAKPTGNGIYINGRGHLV
As to the kind of experiment: FACS, HEK293 cells expressing human Nectin-4. The protocol:
FACS analysis was carried out using HEK293 cells expressing human Nectin-4.

In experiment [4] the target is T3, human Nectin-4 on cells. As to the kind of experiment: cell-based or functional assay.

As usually defined, the Kd is the equilibrium constant for the complex coming apart. Lower therefore signals a tighter complex. For orientation: koff means the first-order rate constant of dissociation. What is called kon is a measure of how fast the partners come together. The low end stands for slower complex formation, the high end for faster complex formation.

B1: BAP-143-wildtype (antibody, V domains shown)
VH: EVQLVESGGGLVQPGGSLRLSCAASGFTFSSYNMNWVRQAPGKGLEWVSYISSSSSTIYYADSVKGRFTISRDNAKNSLSLQMNSLRDEDTAVYYCARAYYYGMDVWGQGTTVTVSS
VL: DIQMTQSPSSVSASVGDRVTITCRASQGISGWLAWYQQKPGKAPKFLIYAASTLQSGVPSRFSGSGSGTDFTLTISSLQPEDFATYYCQQANSFPPTFGGGTKVEIK
notes: 150 kDa used in SPR; also called BAP143-00-00; benchmark (BM)
Turning to B1, the dissociation constant (Kd) in the experiment with cynoNectin4-mFc [1] is 1.06 nM; with cynoNectin4-mFc [2], 0.333 nM. Also, the “Ratio (pH 7.4/6.0) of EC50” value was 1.7 with cyno Nectin-4 on cells and 1.2 in the experiment with human Nectin-4 on cells [3].

B2: BAP-143-00-06 (antibody, V domains shown)
VH: EVQLVESGGGLVQPGGSLRLSCAASGFTFSSYNMNWVRQAPGKGLEWVSYISSSSSTIYYADSVKGRFTISRDNAKNSLSLQMNSLRDEDTAVYYCARAYYYGDDVWGQGTTVTVSS
VL: DIQMTQSPSSVSASVGDRVTITCRASQGISGWLAWYQQKPGKAPKFLIYAASTLQSGVPSRFSGSGSGTDFTLTISSLQPEDFATYYCQQANSFPPTFGGGTKVEIK
notes: Used as a conjugate with a linker payload (CAB ADC)
For the molecule B2, the “Ratio (pH 7.4/6.0) of cell killing EC50” value with human Nectin-4 on cells [4] was 1.2. Besides, in the experiment with cynoNectin4-mFc [1], the Kd came out at 0.56 nM, the koff is 0.00141 s⁻¹ and the kon is 2.52e+06 M⁻¹ s⁻¹. In the experiment with cynoNectin4-mFc [2], this molecule registered an equilibrium dissociation constant (Kd) of 0.4 nM, a koff of 0.000335 s⁻¹ and an association rate constant (kon) of 839000 M⁻¹ s⁻¹. Further, in the experiment with cyno Nectin-4 on cells, the “Ratio (pH 7.4/6.0) of EC50” value amounted to 3.2. In the experiment with human Nectin-4 on cells [3], the “Ratio (pH 7.4/6.0) of EC50” value is 1.2.

B3: BAP-143-00-03 (antibody, V domains shown)
VH: EVQLVESGGGLVQPGGSLRLSCAASGFTFSSYNMNWVRQAPGKGLEWVSYISSSSSTIYYADSVKGRFTISRDNAKNSLSLQMNSLRDEDTAVYYCARAYYYGMDVWGQGTTVTVSS
VL: DIQMTQSPSSVSASVGDRVTITCRASQGISGWLAWYQQKPGKAPKFLIYAASTLQSGVPSRFSGSGSGTDFTLTISSLQPEDFATYYCQQANSFPDTFGGGTKVEIK
notes: as for B2
As for B3, the “Ratio (pH 7.4/6.0) of cell killing EC50” value with human Nectin-4 on cells [4] was 2.6. Also, in the experiment with cynoNectin4-mFc [1], the dissociation constant (Kd) was 2.33 nM, the off-rate constant (koff) was 0.00235 s⁻¹ and the association rate constant (kon) is 1.01e+06 M⁻¹ s⁻¹. In the experiment with cynoNectin4-mFc [2], this molecule came in with a dissociation constant Kd of 3.85 nM, an off-rate constant (koff) of 0.000826 s⁻¹ and a kon of 215000 M⁻¹ s⁻¹. The “Ratio (pH 7.4/6.0) of EC50” value with cyno Nectin-4 on cells turned out to be 3.6. The “Ratio (pH 7.4/6.0) of EC50” value with human Nectin-4 on cells [3] came to 2.

B4: BAP-143-00-02 (antibody, V domains shown)
VH: EVQLVESGGGLVQPGGSLRLSCAASGFTFSSYNMNWVRQAPGKGLEWVSYISSSSSTIYYADSVKGRFTISRDNAKNSLSLQMNSLRDEDTAVYYCARAYYYGMDVWGQGTTVTVSS
VL: DIQMTQSPSSVSASVGDRVTITCRASQGISGWLAWYQQKPGKAPKFLIYAASTLQSGVPSRFSGSGSGTDFTLTISSLQPEDFATYYCQQANSEPPTFGGGTKVEIK
notes: as for B2
For the molecule B4, the “Ratio (pH 7.4/6.0) of cell killing EC50” value with human Nectin-4 on cells [4] was determined as 1.7. Moreover, in the experiment with cynoNectin4-mFc [1], binding was characterised by a dissociation constant (Kd) of 5.46 nM, the dissociation rate constant (koff) amounted to 0.00242 s⁻¹ and the kon is 443000 M⁻¹ s⁻¹. In the experiment with cynoNectin4-mFc [2], the dissociation constant (Kd) worked out at 5.86 nM, the koff was 0.00195 s⁻¹ and the kon stood at 334000 M⁻¹ s⁻¹. The “Ratio (pH 7.4/6.0) of EC50” value with cyno Nectin-4 on cells is 2.3. For the same molecule, the “Ratio (pH 7.4/6.0) of EC50” value with human Nectin-4 on cells [3] came to 1.6.

B5: BAP-143-00-05 (antibody, V domains shown)
VH: EVQLVESGGGLVQPGGSLRLSCAASGFTFSSYNMNWVRQAPGKGLEWVSYISSSSSTIYYADSVKGRFTISRDNAKNSLSLQMNSLRDEDTAVYYCAEAYYYGMDVWGQGTTVTVSS
VL: DIQMTQSPSSVSASVGDRVTITCRASQGISGWLAWYQQKPGKAPKFLIYAASTLQSGVPSRFSGSGSGTDFTLTISSLQPEDFATYYCQQANSFPPTFGGGTKVEIK
notes: as for B2
Regarding B5, the “Ratio (pH 7.4/6.0) of cell killing EC50” value in the experiment with human Nectin-4 on cells [4] was determined as 2. Moreover, in the experiment with cynoNectin4-mFc [1], binding was characterised by a dissociation constant (Kd) of 7.02 nM, the off-rate constant (koff) worked out at 0.00449 s⁻¹ and the kon worked out at 639000 M⁻¹ s⁻¹. In the experiment with cynoNectin4-mFc [2], this molecule displayed a Kd of 4.89 nM, a koff of 0.00157 s⁻¹ and an association rate constant (kon) of 322000 M⁻¹ s⁻¹. Also, the “Ratio (pH 7.4/6.0) of EC50” value in the experiment with cyno Nectin-4 on cells was found to be 2.5. Moreover, in the experiment with human Nectin-4 on cells [3], the “Ratio (pH 7.4/6.0) of EC50” value was 1.7.

B6: BAP-143-00-04 (antibody, V domains shown)
VH: EVQLVESGGGLVQPGGSLRLSCAASGFTFSSYNDNWVRQAPGKGLEWVSYISSSSSTIYYADSVKGRFTISRDNAKNSLSLQMNSLRDEDTAVYYCARAYYYGMDVWGQGTTVTVSS
VL: DIQMTQSPSSVSASVGDRVTITCRASQGISGWLAWYQQKPGKAPKFLIYAASTLQSGVPSRFSGSGSGTDFTLTISSLQPEDFATYYCQQANSFPPTFGGGTKVEIK
notes: as for B2
With B6, in the experiment with human Nectin-4 on cells [4], the “Ratio (pH 7.4/6.0) of cell killing EC50” value amounted to 2.7. In addition, in the experiment with cynoNectin4-mFc [1], binding was characterised by a dissociation constant (Kd) of 2.08 nM, the off-rate (koff) stood at 0.00377 s⁻¹ and the on-rate constant (kon) stood at 1.82e+06 M⁻¹ s⁻¹. In the experiment with cynoNectin4-mFc [2], this molecule showed a dissociation constant Kd of 1.33 nM, a koff of 0.00112 s⁻¹ and an on-rate (kon) of 840000 M⁻¹ s⁻¹. Further, the “Ratio (pH 7.4/6.0) of EC50” value with cyno Nectin-4 on cells amounted to 2.1. In the experiment with human Nectin-4 on cells [3], the “Ratio (pH 7.4/6.0) of EC50” value was 2.1.

B7: BAP-143-00-01 (antibody, V domains shown)
VH: EVQLVESGGGLVQPGGSLRLSCAASGFTFSSYNMNWVRQAPGKGLEWVSYISSSSSTIYYADSVKGRFTISRDNAKNSLSLQMNSLRDEDTAVYYCARAYYYGMDVWGQGTTVTVSS
VL: DIQMTQSPSSVSASVGDRVTITCRASQGISGWEAWYQQKPGKAPKFLIYAASTLQSGVPSRFSGSGSGTDFTLTISSLQPEDFATYYCQQANSFPPTFGGGTKVEIK
notes: as for B2
For the molecule B7, the “Ratio (pH 7.4/6.0) of cell killing EC50” value with human Nectin-4 on cells [4] worked out at 2.1. In addition, in the experiment with cynoNectin4-mFc [1], the equilibrium dissociation constant (Kd) came to 3.04 nM, the koff turned out to be 0.00248 s⁻¹ and the kon came to 817000 M⁻¹ s⁻¹. In the experiment with cynoNectin4-mFc [2], the Kd is 11.1 nM, the off-rate constant (koff) is 0.00162 s⁻¹ and the kon was 146000 M⁻¹ s⁻¹. Also, the “Ratio (pH 7.4/6.0) of EC50” value in the experiment with cyno Nectin-4 on cells is 4.1. Also, the “Ratio (pH 7.4/6.0) of EC50” value with human Nectin-4 on cells [3] turned out to be 3.3.
